Among the data in the supplement of paper PMC10567573 are protein stability index values, retold here.

± gives the standard deviation.

The series in a line: protein stability index of a GFP-peptide fusion (GPS, HEK-293T) (PSI 1-6); higher = more stable. Conditions: c terminus: a fixed tail appended.
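Also: 24-mer peptide tiles fused after GFP, lentivirally expressed, FACS-sorted into six equal bins by GFP/DsRed ratio, decoded by Illumina sequencing, PSI is the read-weighted mean bin number.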

Take LHVACELARPECLFLLLGHGASPG [ANKRD9]: the protein stability index worked out at 2.53 ± 0.61 (treatment: DMSO) and 2.44 ± 0.45 (treatment: MLN4924 1 uM, 8 h).

For the sequence LIKAGADIELGCSTPLMEAAQEGH [ANKRD17], the protein stability index runs as follows: (treatment: DMSO) 4.21 ± 0.57; (treatment: MLN4924 1 uM, 8 h) 4.14 ± 0.35.

For LIQRWYRRYVARLEMRRRCTWSIF [PPEF2], the protein stability index runs as follows: (treatment: DMSO) 2.43 ± 1.3; (treatment: MLN4924 1 uM, 8 h) 2.73 ± 0.57.

Regarding LKIFTEDLPEVESLPRDRVLGFLI [VPS39], the protein stability index (treatment: DMSO) stood at 2.25 ± 0.49 and the protein stability index (treatment: MLN4924 1 uM, 8 h) was 2.23 ± 0.43.

With LKNEIQEVEELDNWQPAVPLMHML [SPATS1], the protein stability index came to 2.8 ± 0.45 (treatment: DMSO) and 3.18 ± 0.38 (treatment: MLN4924 1 uM, 8 h).

With LKPNNLSCDLPEERYRHEIAHDGQ [KLHDC10], the protein stability index was determined as 4.8 ± 0.2 (treatment: DMSO) and 4.8 ± 0.074 (treatment: MLN4924 1 uM, 8 h).

As to LKQLLTETDVWFSKQRKDFEGMAF [GMCL1], the protein stability index runs as follows: (treatment: DMSO) 2.7 ± 0.48; (treatment: MLN4924 1 uM, 8 h) 2.52 ± 0.19.

LKSSGLCESLTYGLPFILRPTSCW [M1AP] had a protein stability index (treatment: DMSO) of 2.9 ± 0.31 and a protein stability index (treatment: MLN4924 1 uM, 8 h) of 3.06 ± 0.73.

As for LLDAHILEWHDSLFQILSERQDMY [ZNF511], the protein stability index reads like this: (treatment: DMSO) 2.32 ± 0.4; (treatment: MLN4924 1 uM, 8 h) 2.17 ± 0.23.

Take LLETDAGPAASEGAEQPPDLHCVL [GADD45A]: the protein stability index reads like this: (treatment: DMSO) 4.82 ± 0.29; (treatment: MLN4924 1 uM, 8 h) 4.78 ± 0.18.

On to LLHGLNLLWRKQLFCDVTLTAQGQ [KLHL14], for which the protein stability index was determined as 3.3 ± 0.17 (treatment: DMSO) and 2.88 ± 0.53 (treatment: MLN4924 1 uM, 8 h).

Turning to LLPLVTLCDGNPRRPSPVLRHLEL [SCNN1D], the protein stability index is, setting by setting: (treatment: DMSO) 2.42 ± 0.42; (treatment: MLN4924 1 uM, 8 h) 2.27 ± 0.46.

LLRPKYRAPQGCSGVDECARQEGL [PBXIP1]: the protein stability index by setting is: (treatment: DMSO) 3.56 ± 0.23; (treatment: MLN4924 1 uM, 8 h) 3.65 ± 0.37.

LLRRSVEGASSDNGCEVKNRKSIL [PHTF1] came in with a protein stability index (treatment: DMSO) of 3.99 ± 0.17 and a protein stability index (treatment: MLN4924 1 uM, 8 h) of 4.05 ± 0.55.

Take LLTRKVICKSDAPTGDVLLDEALK [GOLPH3]: the protein stability index runs as follows: (treatment: DMSO) 2.51 ± 0.25; (treatment: MLN4924 1 uM, 8 h) 2.91 ± 0.39.

As for LLTTSPVFPHYIEKPLGRVGVFLD [TRIM43], the protein stability index amounted to 2.08 ± 0.12 (treatment: DMSO) and 2.31 ± 0.25 (treatment: MLN4924 1 uM, 8 h).

Take LMRSQSPKAQPQTWKSGKQTMLSH [TRIM29]: the protein stability index (treatment: DMSO) is 3.34 ± 0.33 and the protein stability index (treatment: MLN4924 1 uM, 8 h) was 3.6 ± 0.28.

Consider LMRTCERLVKEGRFVPSNPIGILT [PPTC7], for which the protein stability index is, setting by setting: (treatment: DMSO) 2.65 ± 0.17; (treatment: MLN4924 1 uM, 8 h) 2.53 ± 0.23.

On to LNGLQHLKAKKVWYDMFRDAAAIL [ZMAT5], for which the protein stability index runs as follows: (treatment: DMSO) 2.63 ± 0.56; (treatment: MLN4924 1 uM, 8 h) 2.49 ± 0.34.

LNVATFLDPRYKRLPFLSAFERQQ [ZBED1] came in with a protein stability index (treatment: DMSO) of 2.37 ± 0.086 and a protein stability index (treatment: MLN4924 1 uM, 8 h) of 2.43 ± 0.42.

With LNVDAAVQQWLQKGTPASKLILGM [CHIT1], the protein stability index worked out at 2.21 ± 0.36 (treatment: DMSO) and 2.25 ± 0.39 (treatment: MLN4924 1 uM, 8 h).

Take LNVNLNSVVLRRARGGAVSARYVL [DUSP5]: the protein stability index reads like this: (treatment: DMSO) 2.19 ± 0.54; (treatment: MLN4924 1 uM, 8 h) 2.26 ± 0.51.

As for LNYTYKRFEGLTQRGSIPTYMKAG [STK38L], the protein stability index is, setting by setting: (treatment: DMSO) 2.5 ± 0.18; (treatment: MLN4924 1 uM, 8 h) 2.67 ± 0.22.

Regarding LPIKIAAIIASLTFLYTLLREVIH [STEAP1], the protein stability index by setting is: (treatment: DMSO) 2.53 ± 0.41; (treatment: MLN4924 1 uM, 8 h) 1.82 ± 0.64.

Turning to LPISTVREVALLRRLEAFEHPNVV [CDK4], the protein stability index reads like this: (treatment: DMSO) 2.62 ± 0.21; (treatment: MLN4924 1 uM, 8 h) 2.71 ± 0.45.

As to LPLPEQIHKASATIIEPAGESDNP [INTS4], the protein stability index was found to be 5.5 ± 0.26 (treatment: DMSO) and 5.49 ± 0.19 (treatment: MLN4924 1 uM, 8 h).

On to LQAFGETLLLELEQDSGVQVEGLT [ADAMTS4], for which the protein stability index (treatment: DMSO) stood at 3.65 ± 0.63 and the protein stability index (treatment: MLN4924 1 uM, 8 h) came to 3.79 ± 0.27.

Turning to LQCDAVNLAFGRRCEELEDARYKL [TEKT4], the protein stability index was 3.74 ± 0.26 (treatment: DMSO) and 3.64 ± 0.31 (treatment: MLN4924 1 uM, 8 h).

For LQQIQGLIGGLEAQLSELRCEMEA [KRT15], the protein stability index was found to be 3.52 ± 0.43 (treatment: DMSO) and 3.67 ± 0.41 (treatment: MLN4924 1 uM, 8 h).

LQSELAGVADFSATYLRCQLLLIK [INTS4] displayed a protein stability index (treatment: DMSO) of 2.79 ± 0.46 and a protein stability index (treatment: MLN4924 1 uM, 8 h) of 2.57 ± 0.11.

LQTDHYAALLGSNSESWGWDIGRG [SPSB2]: the protein stability index (treatment: DMSO) was found to be 3 ± 0.032 and the protein stability index (treatment: MLN4924 1 uM, 8 h) was 3.02 ± 0.13.

As for LQWKSSHFERRDNMNDNFLEGEEE [CHGB], the protein stability index runs as follows: (treatment: DMSO) 5.36 ± 0.44; (treatment: MLN4924 1 uM, 8 h) 5.49 ± 0.23.

For the sequence LRAPTISDLLNDQDLLDVIRIKLD [EDARADD], the protein stability index turned out to be 2.11 ± 0.61 (treatment: DMSO) and 2.06 ± 0.29 (treatment: MLN4924 1 uM, 8 h).

On to LRLLREEEYVAPPRGPLPTLQVVP [TRAF3IP2], for which the protein stability index was 2.96 ± 0.3 (treatment: DMSO) and 3.23 ± 0.14 (treatment: MLN4924 1 uM, 8 h).

With LRMLEYEPAARISPLGALQHGFFR [DYRK1B], the protein stability index runs as follows: (treatment: DMSO) 2.51 ± 0.2; (treatment: MLN4924 1 uM, 8 h) 2.61 ± 0.33.

For LRRHAGLLDGLARRVGILGEELAD [SCARA5], the protein stability index (treatment: DMSO) was determined as 3.37 ± 0.17 and the protein stability index (treatment: MLN4924 1 uM, 8 h) stood at 3.34 ± 0.18.
